# Source: the supplement of paper PMC7877785
# ± gives the uncertainty stated by the source.
# Assay: self-splicing fitness, log relative to wild type (ln ratio); higher = more splicing; Tetrahymena group I intron in knt gene, E. coli kanamycin selection, DiMSum; sequences stand for … in CUCUCU…GGAGGGAAAAGUUAUCAGGCAUGCACCUGGUAGCUAGUCUUUAAACCAAUAGAUUGCAUCGGUUUAAAAGGCAAGACCGUCAAAUUGCGGGAAAGGGGUCAACAGCCGUUCAGUACCAAGUCUCAGGGGAAACUUUGAGAUGGCCUUGCAAAGGGUAUGGUAAUAAGCUGACGGACAUGGUCCUAACCACGCAGCCAAGUCCUAAGUCAACAGAUCUUCUGUUGAUAUGGAUGCAGUUCACAGACUAAAUGUCGGUCGGGGAAGAUGUAUUCUUCUCAUAAGAUAUAGUCGGACCUCUCCUUAAUGGGAGCUAGCGGAUGAAGUGAUGCAACACUGGAGCCGCUGGGAACUAAUUUGUAUGCGAAAGUAUAUUGAUUAGUUUUGGAGUACUCGUGGUCG
# Method in brief: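 A randomised library covering all eight P1ex-region intron nucleotides was built with the intron in the knt kanamycin-resistance gene on pET-22b(+) and held in E. coli BL21(DE3). Cells were grown overnight at 37°C or 30°C on LB agar, with or without 25 μg/mL kanamycin, plus 100 μg/mL carbenicillin, 50 μM IPTG and 0.2% rhamnose, and pooled colonies were amplicon-sequenced on an Illumina HiSeq 2500. DiMSum fitness is the error-weighted combination of wild-type-normalised replicate fold changes, kanamycin versus none.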
Sequence,self-splicing fitness (ln) (30 °C),self-splicing fitness (ln) (37 °C)
GUGGAGCAAUAUUACGCCAA,-2.82 ± 0.33,-0.536 ± 0.33
GUGGAGCAAUAUUACGCGAU,-2.82 ± 0.32,-2.31 ± 0.39
GUGGAGCAAUAUUACGCGGG,-2.34 ± 0.36,-2.06 ± 0.47
GUGGAGCAAUAUUACGGCAU,-2.46 ± 0.13,-2.62 ± 0.17
GUGGAGCAAUAUUACGGCUA,-1.06 ± 0.48,-0.218 ± 0.35
GUGGAGCAAUAUUACGGUCA,-2.12 ± 0.17,-1.23 ± 0.13
GUGGAGCAAUAUUACGUAGA,-2.11 ± 0.45,-1.16 ± 0.23
GUGGAGCAAUAUUACGUGUG,-2.65 ± 0.21,-2.65 ± 0.23
GUGGAGCAAUAUUACGUUUU,-3.35 ± 0.28,-2.48 ± 0.48
GUGUAGCAAUAUUACGACAC,-2.68 ± 0.18,-2.17 ± 0.2
GUGUAGCAAUAUUACGAGUG,-2.83 ± 0.43,
GUGUAGCAAUAUUACGAUAU,-0.699 ± 0.17,-0.881 ± 0.21
GUGUAGCAAUAUUACGCAAU,-2.06 ± 0.22,-1.26 ± 0.18
GUGUAGCAAUAUUACGCGGA,,-1.54 ± 0.36
GUGUAGCAAUAUUACGGACA,-0.685 ± 0.15,-1.11 ± 0.18
GUGUAGCAAUAUUACGGUAA,-2.48 ± 0.14,-1.49 ± 0.11
GUGUAGCAAUAUUACGUAAA,-2.96 ± 0.21,-0.326 ± 0.15
GUGUAGCAAUAUUACGUAAU,-1.75 ± 0.12,-0.371 ± 0.12
GUGUAGCAAUAUUACGUAUC,-1.01 ± 0.29,
GUGUAGCAAUAUUACGUCAG,-3.06 ± 0.26,-2.53 ± 0.29
GUGUAGCAAUAUUACGUGCG,-1.8 ± 0.18,-0.374 ± 0.19
GUGUAGCAAUAUUACGUGUC,-2.67 ± 0.21,-0.104 ± 0.12
GUGUAGCAAUAUUACGUUAU,-2.81 ± 0.16,-2.41 ± 0.2
GUUAAGCAAUAUUACGAAAC,-3 ± 0.48,-2.83 ± 0.48
GUUAAGCAAUAUUACGAAGU,-2.06 ± 0.18,-1.45 ± 0.23

Sequence,self-splicing fitness (ln) (30 °C),self-splicing fitness (ln) (37 °C)
GUUAAGCAAUAUUACGAGAC,,-0.662 ± 0.25
GUUAAGCAAUAUUACGAGGG,-3.99 ± 0.21,-3.08 ± 0.25
GUUAAGCAAUAUUACGAGUA,-2.5 ± 0.12,-1.32 ± 0.095
GUUAAGCAAUAUUACGAUCA,-0.949 ± 0.23,-0.245 ± 0.2
GUUAAGCAAUAUUACGAUCU,-0.419 ± 0.087,-0.373 ± 0.11
GUUAAGCAAUAUUACGCACU,-0.8 ± 0.22,-1.17 ± 0.23
GUUAAGCAAUAUUACGCAGA,-2.33 ± 0.14,-2.85 ± 0.14
GUUAAGCAAUAUUACGCCUU,-0.286 ± 0.071,0.261 ± 0.096
GUUAAGCAAUAUUACGCGAC,-3.02 ± 0.21,-2.15 ± 0.22
GUUAAGCAAUAUUACGCGAU,-3.1 ± 0.21,-2.65 ± 0.29
GUUAAGCAAUAUUACGCGUA,-1.2 ± 0.17,-0.453 ± 0.25
GUUAAGCAAUAUUACGCUUC,,-1.01 ± 0.49
GUUAAGCAAUAUUACGGAAA,-1.77 ± 0.26,-1.06 ± 0.27
GUUAAGCAAUAUUACGGACA,-0.907 ± 0.21,-1.18 ± 0.21
GUUAAGCAAUAUUACGGAGC,-3.58 ± 0.33,-2.55 ± 0.27
GUUAAGCAAUAUUACGGAUG,-3.1 ± 0.28,-0.786 ± 0.16
GUUAAGCAAUAUUACGGAUU,-2.21 ± 0.12,-0.713 ± 0.14
GUUAAGCAAUAUUACGGCUG,-0.765 ± 0.11,-0.135 ± 0.13
GUUAAGCAAUAUUACGGGAA,-1.87 ± 0.34,-1.86 ± 0.29
GUUAAGCAAUAUUACGGUUC,-1.6 ± 0.081,-0.156 ± 0.12
GUUAAGCAAUAUUACGGUUG,-3.12 ± 0.28,-1.22 ± 0.24
GUUAAGCAAUAUUACGUACC,-0.386 ± 0.29,
GUUAAGCAAUAUUACGUAGA,-3.06 ± 0.16,-0.537 ± 0.12
GUUAAGCAAUAUUACGUUUA,-2.74 ± 0.15,-1.61 ± 0.11
GUUCAGCAAUAUUACGAUGG,-3.81 ± 0.29,-2.31 ± 0.25

Sequence,self-splicing fitness (ln) (30 °C),self-splicing fitness (ln) (37 °C)
GUUCAGCAAUAUUACGAUGU,-0.419 ± 0.075,0.31 ± 0.11
GUUCAGCAAUAUUACGCCAU,-2.66 ± 0.21,-1.99 ± 0.14
GUUCAGCAAUAUUACGCCGA,-2.43 ± 0.31,-1.34 ± 0.29
GUUCAGCAAUAUUACGCCGG,-2.55 ± 0.21,-0.806 ± 0.28
GUUCAGCAAUAUUACGCGCC,-1.96 ± 0.31,-1.43 ± 0.34
GUUCAGCAAUAUUACGCGUU,-0.588 ± 0.062,0.431 ± 0.067
GUUCAGCAAUAUUACGCUAU,-1.32 ± 0.081,-0.451 ± 0.092
GUUCAGCAAUAUUACGCUGA,-2.16 ± 0.24,-2.43 ± 0.31
GUUCAGCAAUAUUACGGCCA,-0.626 ± 0.12,-0.426 ± 0.15
GUUCAGCAAUAUUACGGCGA,-1.16 ± 0.19,0.354 ± 0.18
GUUCAGCAAUAUUACGGUAA,-1.21 ± 0.07,-0.563 ± 0.07
GUUCAGCAAUAUUACGUACA,-1.13 ± 0.11,-0.94 ± 0.11
GUUCAGCAAUAUUACGUGCU,,-2.98 ± 0.28
GUUCAGCAAUAUUACGUGGA,-3.5 ± 0.41,-1.42 ± 0.2
GUUCAGCAAUAUUACGUGGG,-2.07 ± 0.13,-1.92 ± 0.15
GUUCAGCAAUAUUACGUUCC,-2.79 ± 0.29,-1.78 ± 0.41
GUUCAGCAAUAUUACGUUUG,-2.75 ± 0.15,-1.22 ± 0.14
GUUGAGCAAUAUUACGACCU,-2.63 ± 0.16,-1.56 ± 0.17
GUUGAGCAAUAUUACGACGA,-3.3 ± 0.32,-2.2 ± 0.27
GUUGAGCAAUAUUACGACGC,-1.95 ± 0.22,1.05 ± 0.26
GUUGAGCAAUAUUACGACUG,-2.97 ± 0.32,0.138 ± 0.22
GUUGAGCAAUAUUACGCACC,-2.94 ± 0.16,-1.67 ± 0.14
GUUGAGCAAUAUUACGGCGA,-2.81 ± 0.23,-2.44 ± 0.2
GUUGAGCAAUAUUACGGGCA,-3.29 ± 0.23,-0.813 ± 0.16
GUUGAGCAAUAUUACGGGUG,-3.62 ± 0.38,-2.85 ± 0.47

Sequence,self-splicing fitness (ln) (30 °C),self-splicing fitness (ln) (37 °C)
GUUGAGCAAUAUUACGGUUG,-3.56 ± 0.35,-1.38 ± 0.38
GUUGAGCAAUAUUACGUAAG,-2.08 ± 0.18,-1.17 ± 0.19
GUUGAGCAAUAUUACGUCGU,-3.25 ± 0.39,
GUUGAGCAAUAUUACGUGAA,,-1.76 ± 0.22
GUUGAGCAAUAUUACGUGCC,-3.02 ± 0.45,
GUUGAGCAAUAUUACGUGUU,-3.15 ± 0.25,-2.29 ± 0.3
GUUGAGCAAUAUUACGUUAC,-2.2 ± 0.13,-2.21 ± 0.24
GUUUAGCAAUAUUACGAAUC,,-0.202 ± 0.45
GUUUAGCAAUAUUACGACUA,-0.518 ± 0.18,0.0789 ± 0.15
GUUUAGCAAUAUUACGCCCA,-1.48 ± 0.19,-0.953 ± 0.33
GUUUAGCAAUAUUACGCCGG,-2.37 ± 0.45,
GUUUAGCAAUAUUACGCCUC,0.228 ± 0.22,-0.7 ± 0.23
GUUUAGCAAUAUUACGCCUG,-2.62 ± 0.25,-1.39 ± 0.26
GUUUAGCAAUAUUACGGAAA,-2.38 ± 0.37,-2.07 ± 0.28
GUUUAGCAAUAUUACGGAUG,-3.5 ± 0.3,-1.57 ± 0.22
GUUUAGCAAUAUUACGGCAU,0.0778 ± 0.14,-0.182 ± 0.14
GUUUAGCAAUAUUACGGCCA,-1.35 ± 0.14,-0.725 ± 0.15
GUUUAGCAAUAUUACGGCUA,-1.45 ± 0.33,-1.68 ± 0.31
GUUUAGCAAUAUUACGGGAC,,-1.98 ± 0.39
GUUUAGCAAUAUUACGGGUC,-3.6 ± 0.47,-1.73 ± 0.2
GUUUAGCAAUAUUACGGUAC,-1.22 ± 0.12,-2.01 ± 0.15
GUUUAGCAAUAUUACGUCUG,-2.05 ± 0.18,-1.84 ± 0.3
GUUUAGCAAUAUUACGUGAU,-0.892 ± 0.17,-0.419 ± 0.12
GUUUAGCAAUAUUACGUUAC,-4.44 ± 0.28,-2.33 ± 0.18
